Measured values taken from publication PMC4402209.

Molecular target: KCTD12 (UniProt Q6WVG3)
Assay: anti-Rluc IP of Rluc-KCTD12, GB2 blot
Conditions: reference: GB2-WT, no 8-Br-cAMP; sites S892

percent of reference: 103%
Substance: GABAB2 (GB2) (from UniProt O88871) GB2-WT, 8-Br-cAMP 1 mM 30 min
